{"source": "patent US20240245800A1", "about": "“HIGHLY SPECIFIC RABBIT SINGLE -DOMAIN ANTIBODIES FOR DRUG DELIVERY IN IMMUNOTHERAPY APPLICATIONS” (TECHNOPHAGE, INVESTIGAÇÃO E DESENVOLVIMENTO EM …, priority 2021, published 2024)", "molecules": {"B1": {"name": "C5: rabbit derived anti-cNHL VL sdAb clone, SEQ. ID. 3; ^99mTc radiolabelled for biodistribution (antibody, listed as Oryctolagus cuniculus, V domains shown)", "VL": "ELDLTQTPSPVSASVGGTATINCQASQSVYNNYWWAWYQQRPGHPPKLLIYETSKLASGVPSRFKGSGSGTQFTLTIIDVQCDDAATYVCAGGYGTVIDNAFGGGTELEIL", "modifications": "99mTc(CO)3 radiolabel", "notes": "ID; ^99mTc radiolabelled for biodistribution"}}, "key": {"[1]": {"test_system": "CLBL-1 cell extracts", "assay": "ELISA screening of anti-cNHL VL sdAb clones", "assay_type": "binding, canine", "details": "clone supernatants, CLBL-1 extracts", "method": "After the phage display selection, in order to express and select the best anti-cNHL VL sdAbs, phagemid DNA derived from the in vivo output selection was cloned into a PT7-PL vector and transformed into an E. coli strain BL21. Then, individual clones were auto induced, and the supernatant tested in ELISA assays against CLBL-1 and Jurkat cell extracts. To select the best lead candidates, three parameters were evaluated: binding against cNHL, expression yields, and unspecific binding. […] After selection, to characterize the selected clones, the 43 best lead candidates were analysed by sanger sequencing (FIG. 6B). To get further insights of the enriched sequences during the in vivo phage display selection, we performed next generation sequencing (NGS) of the biopanning repertoires. NGS allows massive sequence analysis of the panning population, enabling a genomic assessment of the library diversity and frequency of each clone. Two samples were sequenced: biopanning from the CLBL-1 tumour models and initial immune VL sdAb cNHL library (FIG. 7). Upon bioinformatic analysis of the NGS data, we were able to determine the diversity of each sample and identify the most represented clones. A total of 34880 sequences were obtained for the biopanning from the CLBL-1 tumours. The NHL library obtained a total of 48864 sequences. The number of singletons, consisting of the sequences with a single occurrence, varied between samples, ranging from 76.8% in the library, and 33.3% in the in vivo biopanning from the CLBL-1. Through the comparison of the sequence prevalence between the biopannings and the library, we were able to verify that the number of occurrences in each sequence was higher in the biopanning clones. […] By comparing ELISA data, sanger sequencing and NGS analysis, the six best clones (A12, C8, C5, E1, E2, and B12) were produced and purified. Due to its binding characteristics and production properties, C5 sdAb clone was chosen to be thoroughly characterized and used in the development of the proposed ADC.\nTo express and select anti-NHL-sdAbs, phagemid DNA encoding selected anti-cNHL sdAbs was cloned into PT7-PL (PT7-peptide leader) vector and transformed into E. coli strain BL21. Individual colonies were inoculated in 100 μl of Super Broth (SB) medium containing Overnight Express™ Autoinduction System (Novagen®) and 100 μg/ml of ampicillin and incubated overnight at 30° C. Next day, 40 μl of BugBuster (Roche) containing anti-protease cocktail-EDTA free inhibitors (Roche) were added and incubated for 30 min at 4° C. Then, plates were centrifuged at 1200 rpm and the supernatant was tested in ELISA assays. Three different conditions were assessed: binding to the sdAbs to the antigen, expression level and unspecific binding. After coating the wells with CLBL-1 cell extracts or Raji cell extracts for 1 h at 37° C., wells were blocked with 3% BSA in PBS. Then, wells were washed with PBS and clones were added and incubated for 1 h, at 37° C. Next, plates were washed and incubated with anti-HA HRP antibody (Roche). Finally, after 1 h incubation, plates were washed and ABTS (Roche) was added and optical density at 405 nm was measured at different time points. To evaluate the expression level, the same protocol was applied, excluding antigen coating.\nFor unspecific binding, antigen was replaced by 3% BSA. Rabbit sera and anti-CD20 antibody were used as positive controls. BL21 cell extracts were used as negative controls. In the end, the ten best individual clones were sequenced at Eurofins company. Sequence analysis was performed using the Vector Nti software (Invitrogen). The antibody frameworks, CDRs and the amino acid numbering and sequences followed the rules described by Kabat et al. (1991) Sequences of proteins of immunological interest. Bethesda, MD, U.S. Dept. of Health and Human Services, Public Health Service, National Institutes of Health. […]"}, "[2]": {"test_system": "Jurkat cells", "assay": "Immunofluorescence of C5 with Jurkat cells", "assay_type": "cell-based, human"}}, "data": [{"molecule": "B1", "values": [{"measurement": "ELISA signal against NHL cells", "setting": "[1]", "value": "best results"}, {"measurement": "fluorescence with Jurkat cells (immunofluorescence)", "setting": "[2]", "value": "no detectable fluorescence"}]}]}
